Data on two molecules can be found in paper PMC5722895.

Settings in all cases: remark: other sources report otherwise
The target of assay [1] is T1, Trigger Factor (TF), full length, residues 1-432 (E. coli), P0A850.
T1 chain: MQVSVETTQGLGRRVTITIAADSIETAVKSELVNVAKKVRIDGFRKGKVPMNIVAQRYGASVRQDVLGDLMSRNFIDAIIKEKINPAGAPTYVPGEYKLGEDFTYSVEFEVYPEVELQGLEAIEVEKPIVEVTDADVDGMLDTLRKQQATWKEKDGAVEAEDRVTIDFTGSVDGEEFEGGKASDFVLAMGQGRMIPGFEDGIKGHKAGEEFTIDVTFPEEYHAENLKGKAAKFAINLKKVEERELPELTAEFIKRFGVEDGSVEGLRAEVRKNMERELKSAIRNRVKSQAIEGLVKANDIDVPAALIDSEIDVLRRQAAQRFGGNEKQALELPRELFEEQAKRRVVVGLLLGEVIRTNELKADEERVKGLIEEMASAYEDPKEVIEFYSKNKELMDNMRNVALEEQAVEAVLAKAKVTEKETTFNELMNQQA
The assay can be described thus: SEC-MALS; concentration series of full-length TF and full-length mutants alone, 26 °C, sample buffer (20 mM K-phosphate pH 6.5, 100 mM KCl, 0.5 mM EDTA); fit to a fast monomer-dimer equilibrium; dimer to monomers.

For assay [2], the target named is T2, Trigger Factor (TF), full length, residues 1–432 (E. coli), P0A850.
T2 chain: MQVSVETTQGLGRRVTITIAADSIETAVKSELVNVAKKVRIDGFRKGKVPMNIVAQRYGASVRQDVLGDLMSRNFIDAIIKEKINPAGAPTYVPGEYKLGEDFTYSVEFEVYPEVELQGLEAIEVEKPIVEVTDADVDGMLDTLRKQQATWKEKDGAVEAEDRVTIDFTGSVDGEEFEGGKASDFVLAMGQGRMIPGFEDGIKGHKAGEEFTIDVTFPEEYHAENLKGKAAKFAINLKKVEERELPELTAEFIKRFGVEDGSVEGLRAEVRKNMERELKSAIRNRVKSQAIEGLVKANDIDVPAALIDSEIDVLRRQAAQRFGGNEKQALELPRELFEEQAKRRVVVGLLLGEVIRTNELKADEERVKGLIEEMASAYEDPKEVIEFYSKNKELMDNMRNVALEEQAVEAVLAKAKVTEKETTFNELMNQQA
The assay can be described thus: real-time NMR spin-label exchange (intermolecular PRE); 15 °C; 100 µM [U-2H,15N] TF mixed with 100 μM OXYL-1-NHS-labeled TF in sample buffer; decay of the 15N-filtered signal fitted to the lifetime of the dimer.

In assay [3] the target is T2, Trigger Factor (TF), full length, …. Nature of the assay: real-time NMR spin-label exchange (intermolecular PRE); 35 °C; 100 µM [U-2H,15N] TF mixed with 100 μM OXYL-1-NHS-labeled TF in sample buffer; decay of the 15N-filtered signal fitted to the lifetime of the dimer.
The target is the same in assay [4]. The assay can be described thus: SEC-MALS; sample buffer (20 mM K-phosphate pH 6.5, 100 mM KCl, 0.5 mM EDTA); 6 °C for the individual domains; concentration series fitted to a fast monomer–dimer equilibrium; dimer to monomers. A general note: In gel filtration, larger molecules generally elute earlier.
Assay [5] shares this target. The assay can be described thus: SEC-MALS; as a2 but 250 mM KCl; dimer to monomers.
The target is the same in assay [6]. The assay can be described thus: AUC; sedimentation equilibrium, 6 °C, 100 mM KCl (sample buffer: 20 mM K-phosphate pH 6.5, 100 mM KCl, 0.5 mM EDTA); 12 μM TF, 48 and 135 μM RBD–SBD; global fit to a monomer–dimer model; dimer to monomers.
The target is the same in assay [7]. The assay can be described thus: SEC-MALS; as a2 but 500 mM KCl; dimer to monomers.

One may read the Kd as the equilibrium constant for the complex coming apart. Read a low Kd as higher affinity. By stoichiometry N is commonly meant the number of molecules, sites or subunits per partner or assembly.

B1: Trigger Factor (TF), full length, residues 1-432, P0A850 1-432 (natural protein)
chain: MQVSVETTQGLGRRVTITIAADSIETAVKSELVNVAKKVRIDGFRKGKVPMNIVAQRYGASVRQDVLGDLMSRNFIDAIIKEKINPAGAPTYVPGEYKLGEDFTYSVEFEVYPEVELQGLEAIEVEKPIVEVTDADVDGMLDTLRKQQATWKEKDGAVEAEDRVTIDFTGSVDGEEFEGGKASDFVLAMGQGRMIPGFEDGIKGHKAGEEFTIDVTFPEEYHAENLKGKAAKFAINLKKVEERELPELTAEFIKRFGVEDGSVEGLRAEVRKNMERELKSAIRNRVKSQAIEGLVKANDIDVPAALIDSEIDVLRRQAAQRFGGNEKQALELPRELFEEQAKRRVVVGLLLGEVIRTNELKADEERVKGLIEEMASAYEDPKEVIEFYSKNKELMDNMRNVALEEQAVEAVLAKAKVTEKETTFNELMNQQA
In turn, B1 came in with a Kd in assay [1] of 1.1 µM.

B2: Trigger Factor (TF), full length, residues 1–432, P0A850 1-432 (natural protein)
chain: MQVSVETTQGLGRRVTITIAADSIETAVKSELVNVAKKVRIDGFRKGKVPMNIVAQRYGASVRQDVLGDLMSRNFIDAIIKEKINPAGAPTYVPGEYKLGEDFTYSVEFEVYPEVELQGLEAIEVEKPIVEVTDADVDGMLDTLRKQQATWKEKDGAVEAEDRVTIDFTGSVDGEEFEGGKASDFVLAMGQGRMIPGFEDGIKGHKAGEEFTIDVTFPEEYHAENLKGKAAKFAINLKKVEERELPELTAEFIKRFGVEDGSVEGLRAEVRKNMERELKSAIRNRVKSQAIEGLVKANDIDVPAALIDSEIDVLRRQAAQRFGGNEKQALELPRELFEEQAKRRVVVGLLLGEVIRTNELKADEERVKGLIEEMASAYEDPKEVIEFYSKNKELMDNMRNVALEEQAVEAVLAKAKVTEKETTFNELMNQQA
For B2, the lifetime of the dimer in assay [2] was found to be 15.8 min; in assay [3], 2.6 min. Also, the Kd in assay [4] came to 1.7 µM; in assay [5], 9 µM; in assay [6], 3.3 µM; in assay [7], 30 µM. In addition, the stoichiometry N in assay [4] was determined as 2.
